# Experimental data taken from patent publication US9023343B2, “Phosphorylation-inhibiting agent or dephosphorylating agent for PTEN” (Miyazaki Prefecture, priority 2009, dated 2015).
# Experiments:
# NDRG2 = molecular target: T1, NDRG2 (Homo sapiens, UniProt Q9UN36); settings: read-out: IC50 for enzymatic activity of NDRG2; concentration of NDRG2 protein 25 ng/ul
# T1 sequence (Q9UN36 1-357 isoform Q9UN36-2): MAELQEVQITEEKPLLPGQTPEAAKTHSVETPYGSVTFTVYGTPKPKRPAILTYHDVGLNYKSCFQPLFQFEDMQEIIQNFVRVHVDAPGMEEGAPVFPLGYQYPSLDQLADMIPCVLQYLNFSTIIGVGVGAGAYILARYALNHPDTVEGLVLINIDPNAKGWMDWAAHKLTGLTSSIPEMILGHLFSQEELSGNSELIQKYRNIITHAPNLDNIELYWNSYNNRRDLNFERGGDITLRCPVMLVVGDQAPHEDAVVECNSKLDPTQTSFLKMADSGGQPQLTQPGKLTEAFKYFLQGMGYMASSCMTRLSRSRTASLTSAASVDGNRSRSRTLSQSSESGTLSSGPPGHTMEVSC
# Procedure: The GST-NDRG2 protein (10 ng to 250 ng) was added to a reaction solution (pH 5.0) consisting of 100 mM sodium acetate, 0.8 mM DTT, and 10 mM pNPP, and the mixture was allowed to react at 30° C. for 10 minutes. After addition of 500 μl of 5 M NaGH, the reaction was stopped and OD 410 nm of the absorption wavelength for pNP (p-Nitrophenol) was measured. A standard curve was prepared at a concentration of 0.2 to 1.6 nmol of pNP, and an enzyme activity was determined by converting the absorbance into the concentration of pNP.
# PTEN = molecular target: T2, PTEN (Homo sapiens, UniProt P60484); test: In vitro dephosphorylation of FLAG-PTEN purified from ATL cell line Su9T-01, Western blot; assay type: biochemical; settings: 10 ng/ml FLAG-PTEN, 30° C., 30 minutes; phosphorylation-specific anti-PTEN antibodies
# T2 construct: made in house; host or cells: ATL cell line Su9T-01, transfected with PTEN/pCMV26; purified on anti-FLAG M2 gel
# T2 sequence (P60484 whole entry): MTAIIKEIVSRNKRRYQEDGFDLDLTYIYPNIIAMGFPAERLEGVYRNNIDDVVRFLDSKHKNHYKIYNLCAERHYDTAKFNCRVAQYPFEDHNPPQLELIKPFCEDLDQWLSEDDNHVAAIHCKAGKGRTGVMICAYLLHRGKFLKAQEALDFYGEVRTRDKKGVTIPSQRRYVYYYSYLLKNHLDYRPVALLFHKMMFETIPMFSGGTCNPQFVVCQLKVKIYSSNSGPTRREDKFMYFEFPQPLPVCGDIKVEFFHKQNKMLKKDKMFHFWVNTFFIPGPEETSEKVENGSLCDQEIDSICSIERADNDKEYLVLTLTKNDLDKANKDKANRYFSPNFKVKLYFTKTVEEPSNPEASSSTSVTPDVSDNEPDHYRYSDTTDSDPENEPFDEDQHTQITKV
# Procedure: ATL cell line Su9T-01 of 1×10^7 cells were transfected with 20 μg of PTEN/pCMV26 expression vector by electroporation. On day 2 after the transfection, the cells were collected and 500 μl of RIPA buffer solution was added to prepare a cell extract solution. […] The reaction solution was washed with PBS buffer solution, and eluted with 3×FLAG peptide (100 μg/ml).
# A reaction solution composed of 25 ng of GST or GST-NDRG2 or one unit of bacterial alkaline phosphatase (BAP) (TAKARA) was reacted with a reaction solution consisting of 20 mM magnesium acetate, 300 μg/mL BSA, 30 μM EDTA, 0.03% β-mercaptoethanol, and 10 ng/ml FLAG-PTEN at 30° C. for 30 minutes. Phosphorylation state of PTEN was analyzed by the Western blot method using anti-PTEN antibodies specific to each phosphorylation.
# [1] = pNPP (p-nitrophenyl phosphate) assay of phosphatase activity; assay type: biochemical; settings: pH 5.0, 10 mM pNPP, 30° C., 10 minutes
# Procedure: The GST-NDRG2 protein (10 ng to 250 ng) was added to a reaction solution (pH 5.0) consisting of 100 mM sodium acetate, 0.8 mM DTT, and 10 mM pNPP, and the mixture was allowed to react at 30° C. for 10 minutes. After addition of 500 μl of 5 M […], the reaction was stopped and OD 410 nm of the absorption wavelength for pNP (p-Nitrophenol) was measured. A standard curve was prepared at a concentration of 0.2 to 1.6 nmol of pNP, and an enzyme activity was determined by converting the absorbance into the concentration of pNP.
Molecule,IC50 (NDRG2),dephosphorylation of PTEN (PTEN),production of pNP (phosphatase activity) [1]
[F-].[Na+] [sodium fluoride],383 nM,,
"BAP: bacterial alkaline phosphatase (TAKARA), positive control",,dephosphorylation effects were recognized,
"GST: Glutathione S-Transferase protein, negative control",,not recognized,not observed
